From patent US20260125455A1
Each block holds one binder with its values, some of them ahead of it.

How the values were obtained:
[1] = target: human C5b6 complex (human) (UniProt P01031); assay: ELISA, C5b6-coated wells, large-scale purified antibody
[2] = target: human C5b6 complex (human) (UniProt P01031); assay: ELISA, C5b6-coated wells
[3] = target: human C5b6 complex (human) (UniProt P01031); assay: ELISA, C5b6-coated wells, purified antibody

- EC50 [1]: 0.11 nM
B1: C601HOKC4 HuG4K (antibody, human IgG4 S228P, kappa, V domains shown)
VH: QVQLVQSGAEVKKPGESLKISCKASGYAFSDYWINWVRQMPGKGLEWMGQIYPGDDDTNYNPSFQGQATLSADKSISTAYLQWSSLKASDTAMYYCAREGYYGYTYVEYFDVWGTGTTVTVSS
VL: QIVLTQSPATLSLSPGERATLSCRASSSVSYLHWYQQKPGQSPRLWIYDTSKRATGIPARFSGSGSGTDYTLTISSLEPEDFAVYYCQQWTSNPLTFGQGTKLEIKR

- EC50 [2]: 0.09 nM
- EC50 [3]: 0.09 nM
B2: MoC601 HuG4K (chimeric C601 antibody) (antibody, human IgG4 S228P, kappa, V domains shown)
VH: QVQLQQSGAELVKPGASVKISCKASGYAFSDYWMNWVKQRPGKGLEWIGQIYPGDDDTNYNGKFKGKATLTADKSSSTAYMQLSSLTSEDSAVYFCAREGYYGYTYVEYFDVWGTGTTVTVSS
VL: QIVLTQSPAIMSVSPGEKVTLTCSASSSVSYMHWYQQKSGTSPKRWIYDTSKLASGVPARFSGSGSGTSYSLTISSMEAEDAATYYCQQWTSNPLTFGAGTKLELRR
